Experiment [1] deals with Simplagrin (Simulium platelet aggregation inhibitor), recombinant (Simulium nigrimanum) (UniProt D1FQ14). Put plainly: SPR; steady state: Simplagrin immobilised on CM5 (500 RU), soluble collagens as analyte, HBS-P; KD as the analyte concentration at 50% of saturation. A general note: In SPR one partner is held on a chip, and binding of the other changes the refractive index at the surface.

The target in experiment [2] is Soluble human collagen type I (human) (UniProt P02452). Nature of the experiment: SPR; Simplagrin-CT with collagen type I and III; who was immobilised is not told in what was shown.
In experiment [3] the target is Soluble human collagen type III (human) (UniProt P02461). Described as above.
The target in experiment [4] is Simplagrin (Simulium platelet aggregation inhibitor), recombinant (Simulium nigrimanum) (UniProt D1FQ14). Put plainly: SPR; kinetics: Simplagrin as ligand, RGQOGVMGF peptide as analyte (1-500 nM), 30 µL/min for 180 s, dissociation 600 s, global 1:1 model.
Experiment [5] has as its target T1, Soluble human collagen type I (human, UniProt P02452 162-1218; P08123 80-1119).
T1 construct: also called Collagen-I; Col-I; source: bought: R&D Systems
Nature of the experiment: SPR; thermodynamics: Simplagrin (10-500 nM) over immobilised collagen type I or III at 15, 20, 25, 30, 35 and 40°C; 1:1 model, van't Hoff equation. The conditions noted are these: both partners purified.

The target in experiment [6] is T2, Soluble human collagen type III (human, UniProt P02461 154-1221).
T2 construct: also called Collagen-III; collagen III; source: bought: R&D Systems
T2 sequence (looked up): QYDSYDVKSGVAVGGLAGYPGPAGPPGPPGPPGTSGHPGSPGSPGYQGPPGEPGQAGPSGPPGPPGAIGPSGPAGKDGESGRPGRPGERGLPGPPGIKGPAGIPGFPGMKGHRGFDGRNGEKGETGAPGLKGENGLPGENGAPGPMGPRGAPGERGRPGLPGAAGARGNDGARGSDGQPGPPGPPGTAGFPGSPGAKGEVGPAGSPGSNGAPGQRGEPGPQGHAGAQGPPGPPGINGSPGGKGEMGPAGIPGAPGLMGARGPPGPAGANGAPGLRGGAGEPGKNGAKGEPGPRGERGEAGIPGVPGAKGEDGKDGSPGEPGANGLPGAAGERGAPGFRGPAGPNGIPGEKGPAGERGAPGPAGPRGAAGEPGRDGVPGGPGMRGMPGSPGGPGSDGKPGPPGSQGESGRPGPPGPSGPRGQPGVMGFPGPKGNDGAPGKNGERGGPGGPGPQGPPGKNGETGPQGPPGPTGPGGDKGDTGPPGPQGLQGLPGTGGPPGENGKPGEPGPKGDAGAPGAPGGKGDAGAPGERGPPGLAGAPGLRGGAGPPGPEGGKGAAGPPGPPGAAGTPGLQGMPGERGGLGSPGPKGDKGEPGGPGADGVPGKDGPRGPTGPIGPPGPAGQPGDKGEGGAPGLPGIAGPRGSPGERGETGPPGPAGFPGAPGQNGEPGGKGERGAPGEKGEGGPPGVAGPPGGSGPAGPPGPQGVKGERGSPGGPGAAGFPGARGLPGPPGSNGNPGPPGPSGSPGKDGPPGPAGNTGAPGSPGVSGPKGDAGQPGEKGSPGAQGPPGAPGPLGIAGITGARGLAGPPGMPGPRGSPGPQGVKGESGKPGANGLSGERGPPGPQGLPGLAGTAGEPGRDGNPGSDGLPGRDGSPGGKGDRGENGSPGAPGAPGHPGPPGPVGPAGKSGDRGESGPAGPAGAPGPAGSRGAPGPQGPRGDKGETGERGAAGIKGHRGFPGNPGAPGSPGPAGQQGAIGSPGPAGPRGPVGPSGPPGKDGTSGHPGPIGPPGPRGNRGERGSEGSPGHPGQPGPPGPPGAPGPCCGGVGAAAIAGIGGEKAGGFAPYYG
Described as above. Particulars: both partners purified.

Experiment [7] addresses Soluble human collagen type IV (human, UniProt P02462 173-1669; P08572 184-1712). Nature of the experiment: SPR; steady state: Simplagrin immobilised on CM5 (500 RU), soluble collagens as analyte, HBS-P; KD as the analyte concentration at 50% of saturation. The conditions noted are these: both partners purified.
Experiment [8] has as its target Soluble human collagen type VI (human, UniProt P12109 20-1028; P12110 21-1019; P12111 26-3177). Described as above. Particulars: both partners purified.
For experiment [9], the target named is T1, Soluble human collagen type I. The experiment is described as above. Particulars: both partners purified.
Experiment [10] concerns the target T2, Soluble human collagen type III. The experiment is described as above. Particulars: both partners purified.
Experiment [11] has the same target. Put plainly: ELISA; blocking: collagen type III (0.3 µg/mL) coated, Simplagrin 0.0015-1.5 µM for one hour at 37°C, washed, then 3 nM vWF; detected with anti-human vWF. The conditions noted are these: both partners purified. Background: An ELISA detects its analyte on a solid surface through an enzyme-linked reagent.
The target of experiment [12] is T1, Soluble human collagen type I. Put plainly: SPR; kinetics: collagen type I or III immobilised on CM5 by amine coupling, Simplagrin as analyte (0.015-1 µM), 180 s contact at 30 µL/min, 25°C, HBS-P, 1:1 Langmuir model. Particulars: both partners purified.
Experiment [13] addresses T2, Soluble human collagen type III. Described as above. Particulars: both partners purified.

T1 sequence (P02452 162-1218, chain 1 of 2): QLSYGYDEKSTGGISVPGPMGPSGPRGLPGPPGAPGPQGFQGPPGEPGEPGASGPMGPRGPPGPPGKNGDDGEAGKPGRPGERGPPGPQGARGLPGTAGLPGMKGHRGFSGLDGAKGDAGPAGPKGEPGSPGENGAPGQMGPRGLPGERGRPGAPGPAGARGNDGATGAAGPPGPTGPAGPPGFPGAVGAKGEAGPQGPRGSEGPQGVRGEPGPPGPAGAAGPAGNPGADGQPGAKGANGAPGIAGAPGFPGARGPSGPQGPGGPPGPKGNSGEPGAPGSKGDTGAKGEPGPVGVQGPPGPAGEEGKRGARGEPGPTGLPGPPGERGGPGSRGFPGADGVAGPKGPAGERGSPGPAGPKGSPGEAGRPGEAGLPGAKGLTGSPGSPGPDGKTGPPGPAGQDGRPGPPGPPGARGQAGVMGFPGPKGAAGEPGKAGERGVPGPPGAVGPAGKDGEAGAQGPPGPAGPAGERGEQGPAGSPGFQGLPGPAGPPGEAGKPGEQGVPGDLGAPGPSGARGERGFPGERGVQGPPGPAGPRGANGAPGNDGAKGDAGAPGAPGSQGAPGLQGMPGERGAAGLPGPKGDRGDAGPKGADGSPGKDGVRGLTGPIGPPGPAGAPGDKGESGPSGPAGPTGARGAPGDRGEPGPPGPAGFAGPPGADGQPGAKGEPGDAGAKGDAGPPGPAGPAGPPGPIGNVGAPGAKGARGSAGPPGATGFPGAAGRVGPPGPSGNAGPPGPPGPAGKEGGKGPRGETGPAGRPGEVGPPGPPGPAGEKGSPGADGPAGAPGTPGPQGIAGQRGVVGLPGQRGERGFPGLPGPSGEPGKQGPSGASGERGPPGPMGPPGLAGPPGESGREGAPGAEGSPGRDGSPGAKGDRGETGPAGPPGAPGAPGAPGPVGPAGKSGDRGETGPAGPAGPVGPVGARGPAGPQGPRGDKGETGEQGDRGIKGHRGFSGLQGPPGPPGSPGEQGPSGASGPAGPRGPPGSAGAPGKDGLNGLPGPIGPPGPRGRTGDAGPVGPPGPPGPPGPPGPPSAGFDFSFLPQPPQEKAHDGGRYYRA
T1 sequence (P08123 80-1119, chain 2 of 2): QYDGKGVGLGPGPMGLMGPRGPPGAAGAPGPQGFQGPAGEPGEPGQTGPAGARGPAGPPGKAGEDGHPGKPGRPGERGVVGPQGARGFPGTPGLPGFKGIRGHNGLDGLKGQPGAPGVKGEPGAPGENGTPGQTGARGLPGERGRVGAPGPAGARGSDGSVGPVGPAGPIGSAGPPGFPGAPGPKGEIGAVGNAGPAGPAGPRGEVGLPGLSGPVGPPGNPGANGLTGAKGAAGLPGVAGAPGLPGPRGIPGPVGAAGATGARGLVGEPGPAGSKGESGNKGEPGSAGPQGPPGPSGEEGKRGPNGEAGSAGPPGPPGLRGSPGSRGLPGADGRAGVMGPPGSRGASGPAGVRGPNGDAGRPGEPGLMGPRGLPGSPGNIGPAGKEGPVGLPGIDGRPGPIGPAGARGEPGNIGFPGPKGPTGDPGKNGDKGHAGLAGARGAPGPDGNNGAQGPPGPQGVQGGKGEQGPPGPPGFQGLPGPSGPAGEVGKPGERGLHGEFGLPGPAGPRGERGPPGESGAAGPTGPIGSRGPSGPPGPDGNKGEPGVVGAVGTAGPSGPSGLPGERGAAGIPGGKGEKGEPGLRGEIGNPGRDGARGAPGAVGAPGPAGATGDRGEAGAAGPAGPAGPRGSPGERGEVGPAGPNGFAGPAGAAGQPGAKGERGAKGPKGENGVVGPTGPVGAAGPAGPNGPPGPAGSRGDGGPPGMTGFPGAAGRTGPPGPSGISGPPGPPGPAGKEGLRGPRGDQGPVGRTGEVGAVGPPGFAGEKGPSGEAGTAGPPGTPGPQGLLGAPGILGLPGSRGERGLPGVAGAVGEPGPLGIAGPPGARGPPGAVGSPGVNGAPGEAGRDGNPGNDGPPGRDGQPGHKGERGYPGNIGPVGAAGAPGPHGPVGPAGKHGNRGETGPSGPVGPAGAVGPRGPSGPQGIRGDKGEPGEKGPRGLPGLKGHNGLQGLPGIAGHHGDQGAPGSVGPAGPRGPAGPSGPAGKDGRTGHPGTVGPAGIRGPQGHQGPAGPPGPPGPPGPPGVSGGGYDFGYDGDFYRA
Chain of Soluble human collagen type I (human) (P02452 162-1218, chain 1 of 2): as the sequence (P02452 162-1218, chain 1 of 2) above
Chain of Soluble human collagen type I (human) (P08123 80-1119, chain 2 of 2, further chain): as the sequence (P08123 80-1119, chain 2 of 2) above

Usually Kd stands for the concentration at which binding is half-saturated. Regarding “Collagen type I from rat tail (from UniProt P02454 23-1207; P02466 86-1125) (natural protein)”, in experiment [1], the Kd was 12.4 nM.

For the molecule “Simplagrin carboxy-terminus domain (Simplagrin-CT) (domain or fragment)”, the Kd is 285 nM in experiment [2] and 162 nM in experiment [3].

“Soluble human collagen type V (from UniProt P20908 38-1605; P05997 27-1229) (natural protein)”: the Kd in [1] came out at 10.8 nM.

For orientation: koff means the rate constant with which the complex falls apart. As usually defined, the kon is a measure of how fast the partners come together. “RGQOGVMGF collagen-derived peptide (vWF-recognition peptide)”: in experiment [4], the Kd amounted to 11.1 nM, the koff was 0.00048 s⁻¹ and the kon came out at 727000 M⁻¹ s⁻¹.

B1: Simplagrin (Simulium platelet aggregation inhibitor), recombinant (natural protein, Simulium nigrimanum, UniProt D1FQ14 21-286, looked up)
chain: SPIPDEESEETEDAEQEEDAEEEEHAEEEAQEDGDQTQDTDQESDDGQEETANQGSDEQQEEDGSHGTDETDDEAAGSRTEDVESGGDEQNDGEENGSQENGEEVTGGEDDSHGAQDSEGGEEDAAAQEAGGKKSKGKGAKGGQGSNRAGSSSGGEESAAHTYQEVMRILNGIKINAKEPLKSRLVNGLQYLKVDTINRVENIQKFSRIEHCFGNLDHIVQLYAGDAVERNDYCKGTCIDMVSNEFRGQMEELTSRLYPCLQGGYY
notes: Simplagrin (cluster Sim-50), salivary gland protein of Simulium nigrimanum; precursor of 286 aa with a predicted signal peptide of 20 aa; the construct holds the mature protein and a 6X-His tag before the stop codon; Synthetic codon optimised gene in the VR2001 TOPO vector; also called Sim-50; recombinant Simplagrin; source: FreeStyle293 F (HEK293) cells, transfected, secreted; purified (Ni2+ …)
In general, IC50 refers to the midpoint of a concentration-inhibition curve. A higher IC50 goes with weaker potency. For B1, the results for the dH in experiment [5] and in experiment [6] were -4.54 kcal/mol and -12.9 kcal/mol, respectively. Also, the Kd in experiment [7] is 27.6 nM; in experiment [8], 23.3 nM; in [9] it was 10.3 nM; in experiment [10] it was 9.72 nM; in experiment [12] it was 5.51 nM; in [13], 2.1 nM. In addition, the IC50 in experiment [11] was ~100 nM. In experiment [13], this molecule registered a koff of 0.00031 s⁻¹. In addition, the kon in [13] came to 148000 M⁻¹ s⁻¹.

These data come from PMC4055580, “Simplagrin, a Platelet Aggregation Inhibitor from Simulium nigrimanum Salivary Glands Specifically Binds to the Von Willebrand Factor Receptor in Collagen and Inhibits Carotid Thrombus Formation In Vivo” (PLoS Neglected Tropical Diseases, 2014).
